Source: publication PMC4678826, “Different genome stability proteins underpin primed and naïve adaptation in E. coli CRISPR-Cas immunity”

T1: Cas1 (Escherichia coli, UniProt Q46896 1-305)
T1 sequence: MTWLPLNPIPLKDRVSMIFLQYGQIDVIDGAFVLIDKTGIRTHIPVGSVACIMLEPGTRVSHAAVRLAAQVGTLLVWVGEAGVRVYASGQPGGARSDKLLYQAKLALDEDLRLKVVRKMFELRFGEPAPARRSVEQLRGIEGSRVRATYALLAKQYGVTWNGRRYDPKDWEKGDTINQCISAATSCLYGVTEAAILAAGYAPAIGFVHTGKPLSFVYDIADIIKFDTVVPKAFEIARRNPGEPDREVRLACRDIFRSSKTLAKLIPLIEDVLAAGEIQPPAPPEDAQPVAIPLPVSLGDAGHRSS

T2: Cas2 (Escherichia coli, UniProt P45956 1-94)
T2 sequence: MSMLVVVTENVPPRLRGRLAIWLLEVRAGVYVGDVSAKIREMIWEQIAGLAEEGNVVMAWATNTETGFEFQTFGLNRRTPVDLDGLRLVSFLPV


Key:
Cas1 [1] = biological target: T1, Cas1; experiment: EMSA; 5 mM EDTA; Cas1 0.1-25 nM, DNA 6 nM; EMSA: 7 mM Tris-HCl pH 8.5, 9% glycerol, 50 mM NaCl, 100 ug/ml BSA, 5 mM EDTA, 10 min ambient temperature, 6 nM DNA, 5% acrylamide TBE gel at room temperature; conditions: protein: recombinant; tags: N-terminal His6; chain copies: 2; label: 5'-32P; fork; 25 nt leading arm duplex, 26 nt ssDNA flap
Cas2 = biological target: T2, Cas2; experiment: EMSA; 5 mM EDTA; EMSA: 7 mM Tris-HCl pH 8.5, 9% glycerol, 50 mM NaCl, 100 ug/ml BSA, 5 mM EDTA, 10 min ambient temperature, 6 nM DNA, 5% acrylamide TBE gel at room temperature; conditions: protein: recombinant; tags: N-terminal His6; chain copies: 2; label: 5'-32P; fork; 25 nt leading arm duplex, 26 nt ssDNA flap
Cas1 [2] = biological target: T1, Cas1; experiment: EMSA; 5 mM EDTA; Cas1 25 nM, DNA 6 nM; similar to fork-1; EMSA: 7 mM Tris-HCl pH 8.5, 9% glycerol, 50 mM NaCl, 100 ug/ml BSA, 5 mM EDTA, 10 min ambient temperature, 6 nM DNA, 5% acrylamide TBE gel at room temperature; conditions: protein: recombinant; tags: N-terminal His6; chain copies: 2; label: 5'-32P; fork with 4 nt ssDNA gap at branch point

Row | Binder | binding result (Cas1 [1]) | binding result (Cas2) | binding result (Cas1 [2])
1 | fork-1 (mixed) DNA 1: CAACGTCATAGACGATTACATTGCTACATGGAGCTGTCTAGAGGATCCGA DNA 2: TCGGATCCTCTAGACAGCTCCATGATCACTGGCACTGGTAGAATTCGGC DNA 3: GCCGAATTCTACCAGTGCCAGTGAT | binds | no binding | –
2 | fork-1a (mixed) DNA 1: CAACGTCATAGACGATTACATTGCTACATGGAGCTGTCTAGAGGATCCGA DNA 2: TCGGATCCTCTAGACAGCTCCATGATCACTGGCACTGGTAGAATTCGGC DNA 3: GCCGAATTCTACCAGTGCCAGTGAT DNA 4: AATGTAATCGTCTATGACGTTG | – | – | binds
